The results in this text go back to patent US20240043537A1.

One experiment addresses CD3 on T-cells (UniProt P07766). Briefly: cell-based or functional assay.
The target in experiment [1] is CD3 (as used for the BIACORE kinetics of Table 11) (UniProt P07766). As to the kind of experiment: SPR (BIACORE). (In general: In SPR one partner is held on a chip, and binding of the other changes the refractive index at the surface.)
Chain of CD3 (as used for the BIACORE kinetics of Table 11) (P07766 23-126): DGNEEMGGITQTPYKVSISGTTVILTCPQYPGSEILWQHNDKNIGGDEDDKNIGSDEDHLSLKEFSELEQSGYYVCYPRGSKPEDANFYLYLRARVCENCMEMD

Chain of CD3 on T-cells (P07766 23-207): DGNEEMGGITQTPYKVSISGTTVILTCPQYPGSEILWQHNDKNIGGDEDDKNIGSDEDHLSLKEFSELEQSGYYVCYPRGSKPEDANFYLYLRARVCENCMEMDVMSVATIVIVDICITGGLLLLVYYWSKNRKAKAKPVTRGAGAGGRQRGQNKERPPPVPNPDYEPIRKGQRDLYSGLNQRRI

B1: DART-A-M20 (bispecific antibody)
chain 1: DFVMTQSPDSLAVSLGERVTMSCKSSQSLLNSGNQKNYLTWYQQKPGQPPKLLIYWASTRESGVPDRFSGSGSGTDFTLTISSLQAEDVAVYYCQNDYSYPYTFGQGTKLEIKGGGSGGGGEVQLVESGGGLVQPGGSLRLSCAASGFTFSTYAMNWVRQAPGKGLEWVGRIRSKYNNYATYYADSVKDRFTISRDDSKNSLYLQMNSLKTEDTAVYYCVRHKNFGNSGVSWFAYWGQGTLVTVSSGGCGGGKVAALKEKVAALKEKVAALKEKVAALKE
chain 2: QAVVTQEPSLTVSPGGTVTLTCRSSTGAVTTSNYANWVQQKPGQAPRGLIGGTNKRAPWTPARFSGSLLGGKAALTITGAQAEDEADYYCALWYSNLWVFGGGTKLTVLGGGGSGGGGEVQLVQSGAELKKPGASVKVSCKASGYTFTDYYMKWVRQAPGQGLEWIGDIIPSNGATFYNQKFKGRVTITVDKSTSTAYMELSSLRSEDTAVYYCARSHLLRASWFAYWGQGTLVTVSSGGCGGGEVAALEKEVAALEKEVAALEKEVAALEK
On to B1, for which, in the experiment with CD3 on T-cells, the EC50 of cytolysis at 18 hours (CTL assay, Pan-T-cells and MOLM-13, E:T = 5:1) is 0.259 ng/mL; the EC50 of cytolysis at 42 hours (CTL assay, Pan-T-cells and MOLM-13, E:T = 5:1) came to 0.038 ng/mL; the R: ratio of 18 hour EC50 to DART-A-WT (CTL assay, Pan-T-cells and MOLM-13, E:T = 5:1) was 3.3; the R: ratio of 42 hour EC50 to DART-A-WT (CTL assay, Pan-T-cells and MOLM-13, E:T = 5:1) stood at 13.5. In the experiment with CD3 on T-cells, the max % CytoTox at 18 hours (CTL assay, Pan-T-cells and MOLM-13, E:T = 5:1) came to 37.5%; the max % CytoTox at 42 hours (CTL assay, Pan-T-cells and MOLM-13, E:T = 5:1) was 30.9%. For the same molecule, in experiment [1], the Kd (in general, the free concentration of one partner at which half of the binding sites on the other are occupied at equilibrium, for simple one-to-one binding) came out at 18.9 nM; the R (KD ratio to DART-A-WT) stood at 2.3; the R (ka ratio to DART-A-WT) is 7.7; the R (kd ratio to DART-A-WT) was 18. For the same molecule, in experiment [1], the koff (as a rule, the first-order rate constant of dissociation) was determined as 0.0732 s⁻¹ and the on-rate (kon) (as a rule, a measure of how fast the partners come together) turned out to be 3.87e+06 M⁻¹ s⁻¹.

B2: DART-A-M14 (bispecific antibody)
chain 1: DFVMTQSPDSLAVSLGERVTMSCKSSQSLLNSGNQKNYLTWYQQKPGQPPKLLIYWASTRESGVPDRFSGSGSGTDFTLTISSLQAEDVAVYYCQNDYSYPYTFGQGTKLEIKGGGSGGGGEVQLVESGGGLVQPGGSLRLSCAASGFTFSDYAMNWVRQAPGKGLEWVGRIRSKYNNYATYYADSVKDRFTISRDDSKNSLYLQMNSLKTEDTAVYYCVRHGNFGNSYVSWFAYWGQGTLVTVSSGGCGGGKVAALKEKVAALKEKVAALKEKVAALKE
chain 2: QAVVTQEPSLTVSPGGTVTLTCRSSTGAVTTSNYANWVQQKPGQAPRGLIGGTNKRAPWTPARFSGSLLGGKAALTITGAQAEDEADYYCALWYSNLWVFGGGTKLTVLGGGGSGGGGEVQLVQSGAELKKPGASVKVSCKASGYTFTDYYMKWVRQAPGQGLEWIGDIIPSNGATFYNQKFKGRVTITVDKSTSTAYMELSSLRSEDTAVYYCARSHLLRASWFAYWGQGTLVTVSSGGCGGGEVAALEKEVAALEKEVAALEKEVAALEK
Take B2: in the experiment with CD3 on T-cells, the EC50 of cytolysis at 18 hours (CTL assay, Pan-T-cells and MOLM-13, E:T = 5:1) came to 0.492 ng/mL; the EC50 of cytolysis at 42 hours (CTL assay, Pan-T-cells and MOLM-13, E:T = 5:1) amounted to 0.11 ng/mL; the R: ratio of 18 hour EC50 to DART-A-WT (CTL assay, Pan-T-cells and MOLM-13, E:T = 5:1) was 6.2; the R: ratio of 42 hour EC50 to DART-A-WT (CTL assay, Pan-T-cells and MOLM-13, E:T = 5:1) was 39.3. For the same molecule, in the experiment with CD3 on T-cells, the max % CytoTox at 18 hours (CTL assay, Pan-T-cells and MOLM-13, E:T = 5:1) is 44.7%; the max % CytoTox at 42 hours (CTL assay, Pan-T-cells and MOLM-13, E:T = 5:1) turned out to be 31.4%. Besides, in experiment [1], the Kd amounted to 46.6 nM, the R (KD ratio to DART-A-WT) came out at 5.7, the R (ka ratio to DART-A-WT) came out at 0.6 and the R (kd ratio to DART-A-WT) was 3.5. In experiment [1], this molecule gave a koff of 0.0143 s⁻¹ and a kon of 308000 M⁻¹ s⁻¹.
